Measurements taken from patent US8071348B2, “Protein tyrosine phosphatase substrate-trapping double mutant and uses thereof” (Albert Einstein College of Medicine of Yeshiva University, priority 2002, dated 2011).
[ ]: non-standard residue; d: D form. F2Pmp = N[C@@H](Cc1ccc(C(F)(F)P(=O)(O)O)cc1)C(=O)O

How the values were obtained:
EGF receptor = assay: Substrate pull-down: anti-HA immunoprecipitation of PTP1B forms from EGF-treated COS1 cells, anti-pTyr/anti-EGFR blot; assay type: cell-based, Monkey
Protocol: FIG. 5 illustrates immunoprecipitation (IP) and Western blots (WB) of the phospho-EGF receptor, and other less abundant PTP1B substrates, by the PTP1B substrate-trapping mutants. Wild-type PTP1B, D181A, D181A/Q262A, D181A/C215S, C215S, or blank vector (pJ3H) was used to transfect COS1 cells (4 μg plasmid/60 mm dish). The cells were maintained at 37° C. for 44-48 h. Twenty minutes before harvesting the cells, 20 ng/ml EGF was added to each dish. The PTP1B proteins were precipitated from the cell lysates using anti-hemagglutinin (anti-HA) antibody-conjugated agarose beads from the cell lysates (500 μg total protein) at 4° C. overnight. The beads were washed 3 times with the lysis buffer, mixed with 2×SDS sample buffer, and then boiled for 5 min. The immunocomplexes were resolved by SDS-PAGE, and transferred onto a nitrocellulose membrane. The membrane was probed with anti-pTyr HRP-conjugated antibody (lower panel). The membrane was then stripped and reblotted with anti-EGFR rabbit polyclonal antibody (middle panel). Thereafter, the membrane was further stripped, and re-probed with anti-HA HRP conjugate (upper panel).
The hemagglutinin-tagged (HA-tagged) full-length human wild-type PTP1B in pJ3H expression vector was a gift from Dr. Chemoff (30). The HA-tagged PTP1B mutants, C215S, D181A, D181A/C215S, and D181A/Q262A, were generated by PCR reactions, according to the standard procedure of the Quick-Change™ site-directed mutagenesis kit (Stratagene), using pJ3H-HA-PTP1B as a template. All mutations were verified by DNA sequencing.
Monkey kidney COS1 cells (ATCC: CRL-1650) were maintained in Dulbecco's modified Eagle's minimum essential medium (DMEM), supplemented with 10% fetal bovine serum (Life Technologies, Inc.), penicillin (50 units/ml), streptomycin (50 μg/ml), and L-glutamine (2 mM) under a humidified atmosphere containing 5% CO2. […] The efficiency of transfection, as assessed by 5-bromo-4-chloro-3-indolyl-β-D galactoside (X-Gal) staining of pCMV-β-gal-transfected (β-Gal staining kit, Invitrogen) COS cells, was 25%. […]

[1] = target: T1, EGFR 988-998 peptide DADEpYLIPQQG
T1 chain: DADEXLIPQQG

[2] = target: T2, EGFR^988-998 peptide, DADEpYLIPQQG (Homo sapiens, UniProt P18031, D181A/Q262A); assay: Kinetic constants for PTP1B-catalyzed hydrolysis of pTyr-containing EGFR988-998 peptide; assay type: biochemical; details: EGFR988-998 peptide as substrate
T2 construct: The catalytic domain of PTP1B (residues 1 to 321) was used for in vitro study; made in house; host or cells: E. coli (pT7-7 plasmids)
T2 sequence (P18031 1-321 D181A/Q262A): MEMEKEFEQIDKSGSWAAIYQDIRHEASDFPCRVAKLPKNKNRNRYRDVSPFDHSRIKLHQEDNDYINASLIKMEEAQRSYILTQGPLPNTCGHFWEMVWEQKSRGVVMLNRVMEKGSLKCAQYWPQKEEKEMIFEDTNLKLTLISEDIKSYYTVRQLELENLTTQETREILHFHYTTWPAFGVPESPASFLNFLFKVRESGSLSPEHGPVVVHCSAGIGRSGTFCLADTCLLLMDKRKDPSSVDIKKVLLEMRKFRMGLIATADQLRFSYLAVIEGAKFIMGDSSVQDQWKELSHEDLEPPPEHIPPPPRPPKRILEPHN
Procedure, shortened: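 PTP1B catalytic domain (residues 1–321), wild-type or mutant, expressed in E. coli. Continuous assay at 25° C., pH 7.0, in 50 mM 3,3-dimethylglutarate with 1 mM EDTA (ionic strength 0.15 M). Dephosphorylation followed by absorbance increase at 282 nm or fluorescence at 305 nm to obtain kcat and Km.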

B1: PTP1B/D181A/Q262A, catalytic domain (residues 1 to 321) (enzyme, human, UniProt P18031 1-321, looked up)
chain: MEMEKEFEQIDKSGSWAAIYQDIRHEASDFPCRVAKLPKNKNRNRYRDVSPFDHSRIKLHQEDNDYINASLIKMEEAQRSYILTQGPLPNTCGHFWEMVWEQKSRGVVMLNRVMEKGSLKCAQYWPQKEEKEMIFEDTNLKLTLISEDIKSYYTVRQLELENLTTQETREILHFHYTTWPAFGVPESPASFLNFLFKVRESGSLSPEHGPVVVHCSAGIGRSGTFCLADTCLLLMDKRKDPSSVDIKKVLLEMRKFRMGLIATADQLRFSYLAVIEGAKFIMGDSSVQDQWKELSHEDLEPPPEHIPPPPRPPKRILEPHN
notes: range 1-321; Used in vitro (ITC, kinetics); also called PTP1B substrate-trapping double mutant
affinity for EGFR in in vivo substrate-trapping experiments, versus PTP1B/D181A or PTP1B/C215S (EGF receptor): much higher affinity | quantity of tyrosine-phosphorylated EGF receptor co-precipitated, fold greater than with D181A (EGF receptor; EGF 20 ng/ml for 20 min, anti-HA immunoprecipitation (FIG. 5)): more than 3 fold | trapping of other tyrosine phosphorylated proteins (P160, P120, P70, P60) (EGF receptor; anti-HA immunoprecipitation, not visible in D181A or C215S samples (FIG. 5)): trapped several novel, less-abundant tyrosine phosphorylated proteins | Km (hydrolysis of the EGFR 988-998 peptide, 25 C, pH 7.0) [1]: 51 µM | kcat, fold lower than D181A [2]: 24 fold
